In test [1] the test system is 293/KDR cells. Nature of the test: Proliferation of stably transfected 293/KDR cell lines in culture. To be noted: 293/KDR stable transfectants, days 3-5; p<0.001; FIG. 4E. It is filed as cell-based. Here is the method:
(§1) For proliferation assays, 293/KDR derived cell lines (5×10^4 cellsper well) were seeded in 6-well culture plates in quadruplicate. Cell number per well was measured after 2, 3, 4, and 5 days of growth by removing cells with trypsin, collecting via centrifugation and counting suspended cells in triplicate in a Cellometer Automatic Cell Counter (Nexcelom Bioscience, Lawrence, Mass.). Purified recombinant VEGF-A protein used as an external standard quantitation as VEGF mass per mass total extracted cell protein. KDR autophosphorylation in cell lysates was measured similarly; cultured cells were serum-deprived for 48 h, where noted cells were stimulated for 20 min with WT or 3S VEGF-A alone or in combination at the indicated concentrations, then extracted with ice cold buffer containing non-ionic detergent, protease and phosphatase inhibitors. Cleared extracts were applied to assay plates and processing per the manufacturer's instructions.
(§2) For proliferation assays, 293/KDR derived cell lines were seeded in 6-well culture plates in quadruplicate. Cell number per well was measured at regular intervals removal of adherent cells and counting in a Cellometer Automatic Cell Counter (Nexcelom Bioscience). Assays for colony formation in soft agar were performed as described (Castagnino et al., 2000).

The nature of test [2]: Heparin-Sepharose mediated clustering (covalent affinity crosslinking). It is filed as binding. To be noted: conditioned media with Heparin Sepharose, BS3 crosslinking; FIG. 8. The protocol:
These findings further support the mechanism of action of VEGF 3S as antagonism of HS binding to the VEGF/VEGFR complex leading to instability of ligand/receptor/HS complexes and consequent disruption of downstream signaling.
Covalent Affinity Crosslinking: Assays. […] Heparin Sepharose beads were used as both a source of heparin and to efficiently capture heparin-clustered VEGF from the conditioned media after crosslinking. Samples were then incubated with or without BS3 at room temperature for 1 h. After pelleting the beads by brief centrifugation, samples were obtained from the supernatants for SDS-PAGE and immunoblot analysis. The beads were then washed by five centrifugation/resuspension cycles in PBS, and bound proteins were eluted with boiling SDS-PAGE sample buffer. Supernatant and bead-captured samples were then resolved by SDS-PAGE under reducing conditions, transferred to PVDF and immunodetected with anti-VEGF antibody.

Test [3] has as its system 293/KDR cells. Nature of the test: KDR-driven tumorigenicity of 293/KDR transfectants implanted subcutaneously in mice. It is filed as in vivo, SCID/Beige mice. To be noted: 3×10^6 transfected 293/KDR cells per animal, subcutaneous, FIG. 5D. From the text:
Additional control groups received the empty vector 293/KDR cells (3×10^6 per animal) or the empty vector cells combined with VEGF WT transfectants at 1.5×10^6 cells each. The latter group indicated the growth rate of tumors arising from 1.5×10^6 VEGF WT transfectants in the presence of “neutral” cells providing the same initial mass; a growth rate below this threshold in the group implanted with VEGF WT+VEGF 3S transfectants could be attributed to inhibition of VEGF WT-driven tumor growth by VEGF165 3S.
All experiments involving animals were performed in accordance with NIH Guidelines for Care and Use of Laboratory Animals using approved protocols. 293/KDR cells stably transfected with VEGF WT or 3S expression plasmids, or empty vector, were injected subcutaneously into SCID/Beige mice (Taconic, Inc.; 3×10^6 cells per animal total as indicated in the text, 5 mice/group) and tumor volumes were measured at regular intervals as described previously (Giubellino et al., 2007). Statistical analysis and curve fitting for all animal studies were performed using GraphPad Prism software version 5.0.
To test whether 3S VEGF could antagonize KDR-driven tumorigenicity in mice, groups of animals (n=5) were implanted subcutaneously with WT VEFG transfected 293/KDR cells (3×10^6 per animal), with the same number of 3S VEGF transfected cells, or with a suspension containing half the number of cells of each type. Additional control groups received the empty vector 293/KDR cells (3×10^6 per animal) or the empty vector cells combined with WT VEGF transfectants at 1.5×10^6 cells each. The latter group indicted the growth rate of tumors arising from 1.5×10^6 WT VEGF transfectants in the presence of “neutral” cells providing the same initial mass; a growth rate below this threshold in the group implanted with WT VEGF+3S VEGF transfectants could be attributed to inhibition by 3S VEGF. […]

Test [4] concerns 293/KDR cells. The test is described as follows: Soft agar colony formation (anchorage independent growth) of 293/KDR cells. It counts as cell-based. The following applies: for soft agar colony formation by transfectants: 293/KDR cells stably transfected with expression plasmid, FIG. 4F; for inhibition of soft agar colony formation of 293/KDR cells stably transfected with VEGF165 WT: 3S protein at 0.06, 0.15 and 0.6 nM, pazopanib every other day at 0.3 and 3.0 nM over two weeks, FIG. 5C. The protocol: as §2
SoftAgar Colony Formation Assays for colony formation in soft agar (representative of anchorage independent growth) were performed and quantitated as described previously. Briefly, U87 MG cells and U87 MG cells transfected with a plasmid encoding NK1 60/62/73 were suspended in 0.5% Seaplaque agarose (1×10^5 cells) in growth medium in duplicate 60 mm dishes. Cell colonies were visualized after staining with p-iodotetrazolium violet by brightfield microscopy using an Olympus inverted microscope. Digital images were acquired and recorded using a CCD video camera and IP Lab software.

Test [5] concerns Akt activation in SCC-25 cells, which express VEGFR1, R2 and R3. The test is described as follows: VEGF-A- or VEGF-D-induced Akt activation in SCC-25 cells. To be noted: FIG. 9C. It counts as cell-based. The protocol:
SCC-25 cells express all three VEGFRs.
(§3) Thus the pattern of VEGF 3S inhibition followed the pattern of VEGF-A binding to VEGFR1 and R2, but not homodimers of VEGFR3, as anticipated. […] VEGF 3s blocked Akt activation by VEGF-A (dark circles) or P1GF (squares). […] SCC-25 cells express all three VEGFRs.
(§4) Immunoassays: KDR and VEGF content in cell lysates, tissue extracts and conditioned media was determined using 2-site electrochemiluminescent immunoassays developed for use with the Meso Scale Discovery (MSD) SectorImager 2400 plate reader (Gaithersburg, Md.). KDR activation in cell lysates or tumor tissue extracts included parallel detection with anti-receptor antibodies and specific anti-phospho-receptor antibodies or 4G10 (Millipore). Cell lysates were prepared similarly for analysis of activated (phospho-) Akt, and total Akt using immunoassays from MSD. All measurements were made on triplicate samples. GraphPad Prism software version 5.0 was used for all statistical analyses: protein content values determined by 2-site immunoassay were interpolated from standard curves by nonlinear regression analysis (4 parameter logistic equation); saturation and competitive binding curves were fit after determination of specific binding and assuming a one site binding model.

Test [6] addresses T1, KDR (Homo sapiens, UniProt P35968).
T1 construct: host or cells: HEK293 (293/KDR)
Nature of the test: Basal KDR tyrosyl phosphorylation in stably transfected 293/KDR cells. To be noted: 293/KDR stable transfectants after 24 h serum deprivation; FIG. 4D. It is filed as cell-based.
Procedure: KDR autophosphorylation in cell lysates or tumor tissue extracts was measured similarly but included parallel detection with anti-receptor antibodies and specific anti-phospho-receptor antibodies or 4G10 (Millipore). […]
KDR tyrosyl phosphorylation in each cell line was measured after 24 h of serum deprivation (FIG. 4D). […]
Immunoassays: KDR and VEGF content in cell lysates, tissue extracts and conditioned media was determined using 2-site electrochemiluminescent immunoassays developed for use with the Meso Scale Discovery (MSD) SectorImager 2400 plate reader (Gaithersburg, Md.). […] GraphPad Prism software version 5.0 was used for all statistical analyses: protein content values determined by 2-site immunoassay were interpolated from standard curves by nonlinear regression analysis (4 parameter logistic equation); saturation and competitive binding curves were fit after determination of specific binding and assuming a one site binding model.

Test [7] has as its system Akt activation in EA.hy 926 cells, which express VEGFR1 and R2. Nature of the test: VEGF- or PlGF-induced Akt activation (phospho-Akt/total Akt) in EA.hy 926 cells. It is filed as cell-based. To be noted: FIG. 9A. Here is the method: VEGF 3s blocked Akt activation by VEGF-A (dark circles) or P1GF (squares).
as §3, §4

The target of test [8] is T2, NRP1 (Homo sapiens, UniProt O14786).
T2 construct: purchased Sino Biologics
T2 sequence (O14786 22-644 isoform O14786-2 limits assumed): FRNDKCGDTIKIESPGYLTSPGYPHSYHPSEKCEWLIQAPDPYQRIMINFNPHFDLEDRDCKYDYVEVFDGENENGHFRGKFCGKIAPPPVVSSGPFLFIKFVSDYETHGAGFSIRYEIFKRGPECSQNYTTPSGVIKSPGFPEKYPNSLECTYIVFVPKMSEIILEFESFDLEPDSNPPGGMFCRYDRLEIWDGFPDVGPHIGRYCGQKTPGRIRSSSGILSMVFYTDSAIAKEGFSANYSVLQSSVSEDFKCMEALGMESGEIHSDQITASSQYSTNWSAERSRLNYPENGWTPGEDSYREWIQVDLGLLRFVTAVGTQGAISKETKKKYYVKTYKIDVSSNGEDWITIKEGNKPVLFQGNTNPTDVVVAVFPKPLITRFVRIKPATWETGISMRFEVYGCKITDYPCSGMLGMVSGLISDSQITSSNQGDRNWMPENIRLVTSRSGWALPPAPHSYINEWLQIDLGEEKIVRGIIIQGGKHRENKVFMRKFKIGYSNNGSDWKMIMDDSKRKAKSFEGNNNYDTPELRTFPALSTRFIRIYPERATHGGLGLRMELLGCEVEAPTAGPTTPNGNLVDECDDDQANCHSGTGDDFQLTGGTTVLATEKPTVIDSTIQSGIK
Nature of the test: Covalent affinity crosslinking analysis of NRP1 binding. To be noted: NRP1-Fc, BS3 crosslinking, conditioned media; FIG. 10A. Here is the method: Purified recombinant NRP1-Fc (Sino Biologics) was added as indicated (−NRP1 or +NRP1) to 24 h conditioned media from vector transfected 293/KDR cells(left lanes), 293/KDR/VEGF 3S transfectants (middle lanes), or 293/KDR/VEGF WT transfectants (right lanes) in the absence (−) or presence (+) of the crosslinking reagent BS3 (Thermo Fisher Pierce). Samples were resolved by SDS-PAGE under reducing conditions, transferred to PVDF and immunodetected with anti-Fc antibody (top panel; Thermo Fisher Pierce) or anti-VEGF (lower panels; R&D Systems). A 160 kDa band, consistent with a 1:1 complex of NRP1-Fc and VEGF dimer, was detected by both antibodies specifically in the presence of NRP1-Fc in media from 293/KDR/VEGF 3S transfectants and 293/KDR/VEGF WT transfectants but not the vector control. […] Dimeric VEGF (44 kDa) is captured from both 293/KDR/VEGF 3S media and 293/KDR/VEGF WT media only in the presence of BS3 in the reducing SDS-PAGE conditions used.

Test [9] addresses T1, KDR. Nature of the test: Antagonism of VEGF165 WT-stimulated KDR autophosphorylation in 293/KDR cells. It is filed as cell-based. The following applies: VEGF165 10 ng/ml, serum-deprived 293/KDR cells; mock-immunodepleted conditioned media containing 2.5-fold molar excess VEGF 3S protein; FIG. 5B. The protocol:
FIG. 5B. […] The x-axis indicates the concentration of VEGF165 3S protein (ng/ml) in the conditioned media prior to immunodepletion.
as §1, with “Cleared extracts were applied to assay plates and processing per the manufacturer's instructions.” left out
Since the conditioned media could contain other inhibitors of KDR activation, VEGF165 3S was selectively removed from the media by immunodepletion with anti-VEGF antibody. A mock-immunodepletion was performed in parallel using a non-specific antibody and the VEGF165 3S content of the anti-VEGF and mock-immunodepleted media was measured (FIG. 5A). […]

T1 sequence (P35968 20-1356): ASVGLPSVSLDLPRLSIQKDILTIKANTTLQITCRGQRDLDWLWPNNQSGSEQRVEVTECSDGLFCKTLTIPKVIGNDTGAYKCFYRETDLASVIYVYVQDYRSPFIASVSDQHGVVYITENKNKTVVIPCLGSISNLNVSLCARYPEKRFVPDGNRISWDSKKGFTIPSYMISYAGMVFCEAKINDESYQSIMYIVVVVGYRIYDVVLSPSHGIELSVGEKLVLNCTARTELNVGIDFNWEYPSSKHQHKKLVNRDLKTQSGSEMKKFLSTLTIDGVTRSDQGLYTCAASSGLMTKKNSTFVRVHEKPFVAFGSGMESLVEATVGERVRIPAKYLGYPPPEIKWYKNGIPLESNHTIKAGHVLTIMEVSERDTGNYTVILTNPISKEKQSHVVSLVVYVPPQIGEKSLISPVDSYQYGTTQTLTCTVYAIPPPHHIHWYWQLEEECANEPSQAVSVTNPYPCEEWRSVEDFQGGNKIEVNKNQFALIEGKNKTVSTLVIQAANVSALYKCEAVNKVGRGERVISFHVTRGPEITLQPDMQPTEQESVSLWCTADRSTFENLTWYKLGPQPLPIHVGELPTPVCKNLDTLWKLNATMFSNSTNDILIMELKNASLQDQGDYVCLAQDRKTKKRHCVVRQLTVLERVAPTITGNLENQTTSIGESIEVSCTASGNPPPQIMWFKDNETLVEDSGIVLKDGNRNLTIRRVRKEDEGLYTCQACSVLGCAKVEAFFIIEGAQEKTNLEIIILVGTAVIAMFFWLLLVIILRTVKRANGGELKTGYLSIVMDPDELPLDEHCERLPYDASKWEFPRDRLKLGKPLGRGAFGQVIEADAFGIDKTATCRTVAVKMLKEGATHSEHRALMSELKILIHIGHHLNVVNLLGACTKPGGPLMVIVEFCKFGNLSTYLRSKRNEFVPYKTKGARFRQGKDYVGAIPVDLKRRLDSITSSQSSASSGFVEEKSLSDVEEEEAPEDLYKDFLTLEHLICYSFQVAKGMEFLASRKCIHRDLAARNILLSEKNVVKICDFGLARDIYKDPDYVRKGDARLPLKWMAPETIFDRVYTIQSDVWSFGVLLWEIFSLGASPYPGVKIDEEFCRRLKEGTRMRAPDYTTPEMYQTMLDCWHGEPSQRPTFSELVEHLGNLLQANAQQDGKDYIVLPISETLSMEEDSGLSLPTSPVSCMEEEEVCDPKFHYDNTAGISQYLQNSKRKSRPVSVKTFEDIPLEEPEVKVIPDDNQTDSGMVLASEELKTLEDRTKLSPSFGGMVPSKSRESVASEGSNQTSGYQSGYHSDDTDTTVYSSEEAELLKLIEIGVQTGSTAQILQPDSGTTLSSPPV

“VEGF165 WT: native mature human vascular endothelial growth factor A isoform of 165 amino acids”: in test [1], the “cell proliferation rate in culture” value was “grew significantly faster”. Also, the “heparin-promoted clustering (oligomerization)” value in test [2] was “promoted clustering”. Further, in test [3], the “tumor formation by implanted transfectants” value is “formed tumors fastest”. Also, the “soft agar colony formation by transfectants” value in [4] is listed as “grew robustly”; in [4] (listed as WT VEGF165), “robust anchorage independent growth”.

B1: VEGF165 3S: human VEGF165 with opposite charge substitutions R123E/R124E/R159E in the mature protein (protein, listed as Homo sapiens)
chain: APMAEGGGQNHHEVVKFMDVYQRSYCHPIETLVDIFQEYPDEIEYIFKPSCVPLMRCGGCCNDEGLECVPTEESNITMQIMRIKPHQGQHIGEMSFLQHNKCECRPKKDRARQENPCGPCSEEEKHLFVQDPQTCKCSCKNTDSRCKARQLELNERTCECDKPRR
For B1, the “antagonism of Akt activation by VEGF-A” value in test [5] (VEGF-A at 100 pM) is recorded as “antagonism”. Besides, in test [5] (VEGF-D at 1000 pM), the “block of Akt activation induced by VEGF-D” value was “did not block”. Also, in test [6], the “basal KDR phosphorylation level compared with empty vector transfectants” value is reported as “indistinguishable”. The entries for the “inhibition of PlGF-induced Akt activation (phospho-Akt/total Akt)” value in [7] and in test [7] (listed as VEGF 3s) were “potency similar to pazopanib” and “blocked”, respectively. In addition, in test [7], the “inhibition of VEGF-A-induced Akt activation (phospho-Akt/total Akt)” value was “blocked”. The “tumor formation by implanted transfectants” value in [3] (listed as 3S VEGF) was “tumors grew most slowly”; in [3] (listed as VEGF 3S), “did not form tumors prior to study termination”. Also, the “binding to NRP1 in vitro” value in test [8] was “bound similarly”. Besides, the “inhibition of KDR autophosphorylation stimulated by purified VEGF165 protein” value in test [9] is reported as > 80%. The “inhibition of soft agar colony formation of 293/KDR cells stably transfected with VEGF165 WT” value was “significant, dose-dependent inhibition” in [4]; “substantial and dose-dependent inhibition” in [4] (listed as 3S VEGF). For the same molecule, in test [4], the “soft agar colony formation by transfectants” value is recorded as “grew modestly, if at all”.

Values taken from US11434268B2, “Vascular endothelial growth factor antagonists” (The United States of America, as represented by the …, priority 2012, dated 2022).
